In patent US20100239633A1 one finds Ka and Kd data, which are given here for two substances.

The target of this test is Human FcγRIIIa (human) (UniProt P08637). In words: SPR (Biacore), FcγRIIIa immobilized; 1:1 with mass transfer fit. A general note: In SPR one partner is held on a chip, and binding of the other changes the refractive index at the surface.

As usually defined, the Kd is the equilibrium constant for the complex coming apart. Lower therefore signals tighter binding. As for mouse IgG2a (antibody), the Ka was found to be 2.1e+08 M⁻¹ and the dissociation constant Kd was determined as 4.7 nM.

G-011 (from UniProt P01854 104-210): the Ka worked out at 1.8e+07 M⁻¹ and the Kd is 5500 nM.
